The values below are quoted from earlier work in paper PMC8805269.

Some results are limits rather than exact numbers.

The target in the series is Swi6 CSD (Schizosaccharomyces pombe) (UniProt P40381).

In general, Kd refers to the constant that tells how readily two partners part at equilibrium. As for Swi6 CSD (from UniProt P40381), the Kd is under 17 nM.
